Data taken from paper PMC8054679.
pIC50, pKd: −log10 of the molar value.

Key:
[1] = biological target: Hsp70 (Homo sapiens); settings: cited from earlier work
[2] = biological target: SmBiT-CHIP-FLAG; assay: split reporter
Sequence of SmBiT-CHIP-FLAG (Q9UNE7 whole entry): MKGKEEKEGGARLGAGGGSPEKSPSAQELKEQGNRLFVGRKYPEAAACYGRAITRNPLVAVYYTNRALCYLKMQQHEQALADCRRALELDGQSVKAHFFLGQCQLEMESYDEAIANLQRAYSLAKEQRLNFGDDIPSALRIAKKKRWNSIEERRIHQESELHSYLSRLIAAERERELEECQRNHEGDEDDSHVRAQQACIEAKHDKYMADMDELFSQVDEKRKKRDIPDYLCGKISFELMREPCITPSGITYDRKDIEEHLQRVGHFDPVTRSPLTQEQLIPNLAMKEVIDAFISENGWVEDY

Sequence of CHIP TPR (Q9UNE7 21-154): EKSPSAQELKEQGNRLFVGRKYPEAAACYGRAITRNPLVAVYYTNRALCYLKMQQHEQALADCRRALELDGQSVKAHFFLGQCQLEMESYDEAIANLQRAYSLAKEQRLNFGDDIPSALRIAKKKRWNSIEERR

Substance | pKd [1] | pIC50 [2] | percent reduction of luminescence at 10 μM [2] [%]
CHIP TPR (from UniProt Q9UNE7) | 6.22 | – | –
R9-LWWPD (peptide; other documents disagree on this pair) | – | 5.59 | 40
